One assay has as its target ADA Env on pseudovirus (HIV-1 ADA). In words: cell-based or functional assay.
Assay [1] deals with 92RW020 Env on pseudovirus (HIV-1 92RW020). The assay is described as follows: cell-based or functional assay.
The target of assay [2] is T1, recombinant monomeric gp120 JR-CSF (HIV-1 JR-CSF, UniProt P20871 32-503).
T1 construct: domain: gp120; also called JR-CSF gp120; JR-CSFgp120
In words: mAb Specificity column, ELISA screen. On the technique in general: ELISA stands for enzyme-linked immunosorbent assay.
Experimental: In anti-gp120 ELISA, recombinant gp120 (0.5 μg/ml) was captured on 384 well ELISA plates pre-coated (at 4° C. overnight) with goat anti-gp120 (5 μg/ml) in BSA-containing assay buffer (PBS with 0.05% Tween-20) for 1 hr at room temperature. After excess gp120 was removed and plates were washed thrice with assay buffer, B cell culture supernatants diluted 5-fold was added to incubate for 1 hr at room temperature. Following three washes in assay buffer, secondary HRP-conjugated goat anti-human Ig Fc in BSA-containing assay buffer was added and incubated for about 1 hr at room temperature. 3,3′,5,5′-tetramethylbenzidine (TMB) substrate was used to develop the colorimetric readouts after washing the ELISA plates 3 times.

In assay [3] the target is JR-FL(E168K) Env on pseudovirus (HIV-1 JR-FL). In words: cell-based or functional assay.
For assay [4], the target named is HIV-1 JR-CSF Env on pseudovirus (HIV-1 JR-CSF, UniProt P20871 32-848). In words: cell-based or functional assay.

B1: 1496_C09 (PG9) (TCN-109) (antibody, V domains shown)
VH: QRLVESGGGVVQPGSSLRLSCAASGFDFSRQGMHWVRQAPGQGLEWVAFIKYDGSEKYHADSVWGRLSISRDNSKDTLYLQMNSLRVEDTATYFCVREAGGPDYRNGYNYYDFYDGYYNYHYMDVWGKGTTVTVSS
VL: QSALTQPASVSGSPGQSITISCNGTSNDVGGYESVSWYQQHPGKAPKVVIYDVSKRPSGVSNRFSGSKSGNTASLTISGLQAEDEGDYYCKSLTSTRRRVFGTGTKLTVLG
As for B1, the “IC50 (ug/ml), pseudovirus neutralization, TZM-bl assay” value with ADA Env on pseudovirus came to 0.2 µg/mL; in assay [1], 0.1 µg/mL.

B2: 1495_C14 (PGC14) (antibody, human IgG1, lambda, V domains shown)
VH: DGHLVQSGVEVKKTGATVKISCKVSGYSFIDYYLHWVQRAPGKGLEWVGLIDPENGEARYAEKFQGRVTIIADTSIDTGYMEMRSLKSEDTAVYFCAAGAVGADSGSWFDPWGQGTLVTVSS
VL: SYELTQPPSVSVSPGQTASITCSGSKLGDKYVSWYQLRPGQSPILVMYENDRRPSGIPERFSGSNSGDTATLTISGTQALDEADFYCQAWETTTTTFVFFGGGTQLTVLG
Take B2: the binding result in assay [2] was “binds”.

B3: 1456_P20 (PG20) (antibody, human IgG1, kappa, V domains shown)
VH: QVRLVQSGPEVKKPGSSVTVSCQASGGTFSSYAFTWVRQAPGQGLEWLGMVTPIFGEAKYSQRFEGRVTITADESTSTTSIELRGLTSEDTAIYYCARDRRAVPIATDNWLDPWGQGTLVTVSS
VL: DIQLTQSPSSLSASVGDRVSITCRASQTINNYLNWYQQTPGKAPKLLIYGASNLQNGVPSRFSGSGSGTDFTLTISSLQPEDFATYYCQQSFSTPRTFGQGTRLDIKR
For the molecule B3, the binding result in assay [2] is on record as “binds”.

B4: 1460_G14 (PGG14) (antibody, human IgG1, kappa, V domains shown)
VH: QVLLVQSGTEVKKPGSSVKVSCQASGGAFSSYAFSWVRQAPGQGLEWMGMITPVFGETKYAPRFQGRLTLTAEESLSTTYMELRSLTSDDTAFYYCTRDRRVVPMATDNWLDPWGQGTLVTVSS
VL: DIQLTQSPSSLSASVGDRVTVTCRASQTIHTYLNWYQQIPGKAPKLLIYGASTLQSGVPSRFSGSGSGTDFTLTINSLQPEDFATYYCQQSYSTPRTFGQGTRLDIKR
On to B4, for which, in assay [2], the binding result is reported as “binds”.

B5: 1443_C16 (PG16) (TCN-116) (antibody, V domains shown)
VH: QEQLVESGGGVVQPGGSLRLSCLASGFTFHKYGMHWVRQAPGKGLEWVALISDDGMRKYHSDSMWGRVTISRDNSKNTLYLQFSSLKVEDTAMFFCAREAGGPIWHDDVKYYDFNDGYYNYHYMDVWGKGTTVTVSS
VL: QSALTQPASVSGSPGQTITISCNGTSSDVGGFDSVSWYQQSPGKAPKVMVFDVSHRPSGISNRFSGSKSGNTASLTISGLHIEDEGDYFCSSLTDRSHRIFGGGTKVTVLG
In the case of B5, the “IC50 (ug/ml), pseudovirus neutralization, TZM-bl assay” value in the assay with ADA Env on pseudovirus was 0.004 µg/mL; in assay [1], 0.09 µg/mL; in assay [3] it was 0.006 µg/mL; in assay [4], 0.001 µg/mL.

The values are drawn from patent US20140205612A1 (published 2014).
